Molecular target: T1, human CD47 (human, UniProt Q08722 19-139, limits assumed)
T1 construct: in the IHC study it is the native protein in frozen human tissues; also called Integrin-Associated-Protein; IAP
Experiment: immunohistochemistry, biotin-conjugated NI-1801 on frozen human tissues
Text: Sections of ovarian carcinoma (endometrioid adenocarcinoma) were used as positive controls.

T1 sequence (Q08722 19-139 limits assumed): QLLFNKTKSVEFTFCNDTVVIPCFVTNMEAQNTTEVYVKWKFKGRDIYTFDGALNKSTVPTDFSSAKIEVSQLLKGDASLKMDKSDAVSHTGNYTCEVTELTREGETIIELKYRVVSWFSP

binding result: binds
B1: NI-1801 (bispecific antibody Ka3×O38, anti-CD47 × anti-mesothelin) (bispecific antibody, human IgG1, kappa, lambda)
heavy: not shown
light 1: not shown
light 2: QPVLTQPASLSASPGASASLTCTLRSGINVRDYRIFWYQQKPGSPPQYLLRYKSASDKQQGSGVPSRFSGSKDASANAGILLISGLQSEDEADYYCMIWHHDSEGHAFVFGGGTKLTVLGQPKAAPSVTLFPPSSEELQANKATLVCLISDFYPGAVTVAWKADSSPVKAGVETTTPSKQSNNKYAASSYLSLTPEQWKSHRSYSCQVTHEGSTVEKTVAPTECS
notes: also called CD47×MSLN bispecific
